Measurements from patent US20060264369.

Biological target: von Willebrand factor full length (Homo sapiens) (UniProt P04275)
Experiment: filter
Conditions: 3'-idT

CGUGCAGUGCCGGCCGTGCGGTGCCUCCGUCACG [ARC1531]
Kd (2'-OMe/deoxy composite, single PS, internal PEG, 20.0% bound at 100 nM vWF): 1.5 nM

GCGUGCAGUGCCGGCCGTGCGGTGCCUCCGUCACGC [ARC1527]
Kd (2'-OMe/deoxy composite, single PS, internal PEG, 14.1% bound at 100 nM vWF): 3.4 nM

CGGCCGTGCGGTGCCUCCGUCACGUGCAGUGCCG [ARC1533]
Kd (2'-OMe/deoxy composite, single PS, internal PEG, 31.7% bound at 100 nM vWF): 4 nM

GGCGTGCAGTGCCGGCCGTGCGGTGCCTCCGTCACGCC [ARC1029]
Kd (internal PEG spacer after GGCGTGCAGTGCC, DPBS, 0.1 mg/mL BSA, RT): 1.4 nM

GCGUGCAGUGCCGGCCGTGCGGTGCCUCCGUCACGC [ARC1528]
Kd (2'-OMe/deoxy composite, single PS, internal PEG, 10.2% bound at 100 nM vWF): 4.2 nM

CGUGCAGUGCCGGCCGTGCGGTGCCUCCGUCACG [ARC1532]
Kd (2'-OMe/deoxy composite, single PS, internal PEG, 19.3% bound at 100 nM vWF): 2.6 nM

GCGTGCAGTGCCTAGGCCGTGCGGTGCCTCCGTCACGCC [ARC1028]
Kd (internal PEG spacer after GCGTGCAGTGCCT, DPBS, 0.1 mg/mL BSA, RT): 1.1 nM
